Source: paper PMC12749748 (Nature Communications, 2025)

Target: the molecule itself
Assay: cryo-EM structure; IRE1:G6374:VCB complex purified by SEC, cross-linked with 500 µM BS3, 0.005% CTAB added; map at ~2.6 Å

B1: Recombinant human IRE1.KR (G547-L977) (domain or fragment, UniProt O75460 547-977, looked up)
chain: GSSPSLEQDDGDEETSVVIVGKISFCPKDVLGHGAEGTIVYRGMFDNRDVAVKRILPECFSFADREVQLLRESDEHPNVIRYFCTEKDRQFQYIAIELCAATLQEYVEQKDFAHLGLEPITLLQQTTSGLAHLHSLNIVHRDLKPHNILISMPNAHGKIKAMISDFGLCKKLAVGRHSFSRRSGVPGTEGWIAPEMLSEDCKENPTYTVDIFSAGCVFYYVISEGSHPFGKSLQRQANILLGACSLDCLHPEKHEDVIARELIEKMIAMDPQKRPSAKHVLKHPFFWSLEKQLQFFQDVSDRIEKESLDGPIVKQLERGGRAVVKMDWRENITVPLQTDLRKFRTYKGGSVRDLLRAMRNKKHHYRELPAEVRETLGSLPDDFVCYFTSRFPHLLAHTYRAMELCSHERLFQPYYFHEPPEPQPPVTPDAL
stoichiometry N: 2
